Tests used:
[1] = target: BG505 NFL-L555P (HIV-1 BG505 (clade A)); assay: ELISA, His-captured trimer
[2] = target: BG505 NFL-TD+CC2-D4K_L555P (HIV-1 BG505 (clade A)); assay: ELISA, His-captured trimer
[3] = target: BG505 NFL-TD+CC2-D4K_L555P w/rEK (HIV-1 BG505 (clade A)); assay: ELISA, His-captured trimer
[4] = target: 16055 NFL-CC2 (HIV-1 16055 (clade C)); assay: ELISA, His-captured trimer
[5] = target: 16055 NFL-Q563P (HIV-1 16055 (clade C)); assay: ELISA, His-captured trimer
[6] = target: 16055 NFL-L555P (HIV-1 16055 (clade C)); assay: ELISA, His-captured trimer
[7] = target: 16055 NFL-TD+CC2-D4K_L555P (HIV-1 16055 (clade C)); assay: ELISA, His-captured trimer
[8] = target: 16055 NFL-TD+CC2-D4K_L555P w/rEK (HIV-1 16055 (clade C)); assay: ELISA, His-captured trimer
[9] = target: BG505 NFL-CC2 (HIV-1 BG505 (clade A)); assay: ELISA, His-captured trimer
[10] = target: 16055 NFL-TD+CC2-D4K_I559P w/rEK (HIV-1 16055 (clade C)); assay: ELISA, His-captured trimer
[11] = target: BG505 NFL-TD+CC2-D4K_I559P w/rEK (HIV-1 BG505 (clade A)); assay: ELISA, His-captured trimer
[12] = target: JRFL NFL-CC2 (HIV-1 JRFL (clade B)); assay: ELISA, His-captured trimer
[13] = target: 16055 NFL-TD+CC2-D4K_I559P (HIV-1 16055 (clade C)); assay: ELISA, His-captured trimer
[14] = target: BG505 NFL-TD+CC2-D4K_I559P (HIV-1 BG505 (clade A)); assay: ELISA, His-captured trimer
[15] = target: BG505 NFL (I559P) parental (HIV-1 BG505 (clade A)); assay: ELISA, His-captured trimer
[16] = target: BG505 NFL-L555P (HIV-1 BG505 (clade A)); assay: BLI, IgG captured, trimer as analyte
[17] = target: BG505 NFL-TD+CC2-D4K_L555P (HIV-1 BG505 (clade A)); assay: BLI, IgG captured, trimer as analyte
[18] = target: BG505 NFL-Q562P (HIV-1 BG505 (clade A)); assay: BLI, IgG captured, trimer as analyte
[19] = target: BG505 NFL-Q563P (HIV-1 BG505 (clade A)); assay: BLI, IgG captured, trimer as analyte
[20] = target: 16055 NFL-CC2 (HIV-1 16055 (clade C)); assay: BLI, IgG captured, trimer as analyte
[21] = target: 16055 NFL-Q563P (HIV-1 16055 (clade C)); assay: BLI, IgG captured, trimer as analyte
[22] = target: BG505 NFL-S553P (HIV-1 BG505 (clade A)); assay: BLI, IgG captured, trimer as analyte
[23] = target: 16055 NFL-Q562P (HIV-1 16055 (clade C)); assay: BLI, IgG captured, trimer as analyte
[24] = target: 16055 NFL-L555P (HIV-1 16055 (clade C)); assay: BLI, IgG captured, trimer as analyte
[25] = target: 16055 NFL-TD+CC2-D4K_L555P (HIV-1 16055 (clade C)); assay: BLI, IgG captured, trimer as analyte
[26] = target: BG505 NFL-CC2 (HIV-1 BG505 (clade A)); assay: BLI, IgG captured, trimer as analyte
[27] = target: 16055 NFL (I559P) parental (HIV-1 16055 (clade C)); assay: BLI, IgG captured, trimer as analyte
[28] = target: BG505 NFL-N554P (HIV-1 BG505 (clade A)); assay: BLI, IgG captured, trimer as analyte
[29] = target: 16055 NFL-TD+CC2-D4K_I559P (HIV-1 16055 (clade C)); assay: BLI, IgG captured, trimer as analyte
[30] = target: BG505 NFL-TD+CC2-D4K_I559P (HIV-1 BG505 (clade A)); assay: BLI, IgG captured, trimer as analyte
[31] = target: BG505 NFL (I559P) parental (HIV-1 BG505 (clade A)); assay: BLI, IgG captured, trimer as analyte
[32] = target: 16055 NFL (I559P) parental (HIV-1 16055 (clade C)); assay: ELISA, His-captured trimer

Substance: PGT145 (antibody)
- EC50 [1]: 0.018 µg/mL
- EC50 [2]: 0.014 µg/mL
- EC50 [3]: 0.015 µg/mL
- EC50 [4]: 0.013 µg/mL
- EC50 [5]: 0.013 µg/mL
- EC50 [6]: 0.014 µg/mL
- EC50 [7]: 0.014 µg/mL
- EC50 [8]: 0.015 µg/mL
- EC50 [9]: 0.011 µg/mL
- EC50 [10]: 0.019 µg/mL
- EC50 [11]: 0.016 µg/mL
- EC50 [12]: 0.012 µg/mL
- EC50 [13]: 0.015 µg/mL
- EC50 [14]: 0.013 µg/mL
- EC50 [15]: 0.016 µg/mL
- Kd [16]: 2.9 nM
- Kd [17]: 19 nM
- koff [17]: 0.0031 s⁻¹
- kon [17]: 170000 M⁻¹ s⁻¹
- Kd [18]: 6.2 nM
- Kd [19]: 3.6 nM
- Kd [20]: 16 nM
- koff [20]: 0.004 s⁻¹
- kon [20]: 240000 M⁻¹ s⁻¹
- Kd [21]: 1.6 nM
- koff [21]: 0.0005 s⁻¹
- kon [21]: 320000 M⁻¹ s⁻¹
- Kd [22]: 5 nM
- Kd [23]: 2.9 nM
- koff [23]: 0.0009 s⁻¹
- kon [23]: 300000 M⁻¹ s⁻¹
- Kd [24]: 3.3 nM
- koff [24]: 0.001 s⁻¹
- kon [24]: 310000 M⁻¹ s⁻¹
- Kd [25]: 16 nM
- koff [25]: 0.0035 s⁻¹
- kon [25]: 220000 M⁻¹ s⁻¹
- Kd [26]: 21 nM
- koff [26]: 0.0034 s⁻¹
- kon [26]: 160000 M⁻¹ s⁻¹
- Kd [27]: 1.9 nM
- Kd [28]: 4.3 nM
- Kd [29]: 25 nM
- koff [29]: 0.0056 s⁻¹
- kon [29]: 220000 M⁻¹ s⁻¹
- Kd [30]: 16 nM
- koff [30]: 0.0027 s⁻¹
- kon [30]: 170000 M⁻¹ s⁻¹
- Kd [31]: 6.2 nM

Substance: PGT151 (antibody)
- EC50 [1]: 0.058 µg/mL
- EC50 [2]: 0.073 µg/mL
- EC50 [3]: 0.085 µg/mL
- EC50 [5]: 0.047 µg/mL
- EC50 [6]: 0.048 µg/mL
- EC50 [8]: 0.056 µg/mL
- EC50 [9]: 0.059 µg/mL
- EC50 [10]: 0.041 µg/mL
- EC50 [11]: 0.091 µg/mL
- EC50 [12]: 0.139 µg/mL
- EC50 [14]: 0.065 µg/mL
- EC50 [15]: 0.062 µg/mL
- Kd [16]: 1.4 nM
- Kd [17]: 3.7 nM
- koff [17]: 0.0014 s⁻¹
- kon [17]: 370000 M⁻¹ s⁻¹
- Kd [18]: 1.9 nM
- Kd [19]: 1.7 nM
- Kd [20]: 21 nM
- koff [20]: 0.0053 s⁻¹
- kon [20]: 250000 M⁻¹ s⁻¹
- Kd [21]: 8.9 nM
- koff [21]: 0.0016 s⁻¹
- kon [21]: 180000 M⁻¹ s⁻¹
- Kd [22]: 3.3 nM
- Kd [23]: 9.2 nM
- koff [23]: 0.0016 s⁻¹
- kon [23]: 180000 M⁻¹ s⁻¹
- Kd [24]: 5.7 nM
- koff [24]: 0.0008 s⁻¹
- kon [24]: 150000 M⁻¹ s⁻¹
- Kd [25]: 13 nM
- koff [25]: 0.0055 s⁻¹
- kon [25]: 45000 M⁻¹ s⁻¹
- Kd [26]: 1.9 nM
- koff [26]: 0.0006 s⁻¹
- kon [26]: 290000 M⁻¹ s⁻¹
- Kd [28]: 1.4 nM
- Kd [29]: 8.7 nM
- koff [29]: 0.0069 s⁻¹
- kon [29]: 790000 M⁻¹ s⁻¹
- Kd [30]: 2.3 nM
- koff [30]: 0.0008 s⁻¹
- kon [30]: 340000 M⁻¹ s⁻¹
- Kd [31]: 5.5 nM

Substance: VRC01 (antibody)
- EC50 [1]: 0.07 µg/mL
- EC50 [2]: 0.051 µg/mL
- EC50 [3]: 0.069 µg/mL
- EC50 [4]: 0.021 µg/mL
- EC50 [5]: 0.294 µg/mL
- EC50 [6]: 0.178 µg/mL
- EC50 [7]: 0.067 µg/mL
- EC50 [8]: 0.178 µg/mL
- EC50 [9]: 0.059 µg/mL
- EC50 [10]: 0.208 µg/mL
- EC50 [11]: 0.066 µg/mL
- EC50 [12]: 0.032 µg/mL
- EC50 [32]: 0.055 µg/mL
- EC50 [13]: 0.059 µg/mL
- EC50 [14]: 0.042 µg/mL
- EC50 [15]: 0.05 µg/mL

Substance: VRC34 (antibody)
- EC50 [1]: 0.017 µg/mL
- EC50 [2]: 2.43 µg/mL
- EC50 [3]: 0.035 µg/mL
- EC50 [4]: 0.434 µg/mL
- EC50 [8]: 0.032 µg/mL
- EC50 [9]: 0.457 µg/mL
- EC50 [10]: 0.034 µg/mL
- EC50 [11]: 0.037 µg/mL
- EC50 [12]: 1.01 µg/mL
- EC50 [32]: 0.692 µg/mL
- EC50 [14]: 0.072 µg/mL
- EC50 [15]: 0.464 µg/mL
- Kd [17]: 44 nM
- koff [17]: 0.002 s⁻¹
- kon [17]: 44000 M⁻¹ s⁻¹
- Kd [20]: 63 nM
- koff [20]: 0.0027 s⁻¹
- kon [20]: 43000 M⁻¹ s⁻¹
- Kd [25]: 75 nM
- koff [25]: 0.0038 s⁻¹
- kon [25]: 50000 M⁻¹ s⁻¹
- Kd [26]: 1.3 nM
- koff [26]: 4e-05 s⁻¹
- kon [26]: 27000 M⁻¹ s⁻¹
- Kd [29]: 92 nM
- koff [29]: 0.0038 s⁻¹
- kon [29]: 41000 M⁻¹ s⁻¹
- Kd [30]: 12 nM
- koff [30]: 0.0005 s⁻¹
- kon [30]: 43000 M⁻¹ s⁻¹
